Results as given in PMC11020753, “Contribution of amino acids in the active site of dipeptidyl peptidase 4 to the catalytic action of the enzyme” (PLOS ONE, 2024).

B1: wild type DP4 (Homo sapiens) (protein)
chain: ADSRKTYTLTDYLKNTYRLKLYSLRWISDHEYLYKQENNILVFNAEYGNSSVFLENSTFDEFGHSINDYSISPDGQFILLEYNYVKQWRHSYTASYDIYDLNKRQLITEERIPNNTQWVTWSPVGHKLAYVWNNDIYVKIEPNLPSYRITWTGKEDIIYNGITDWVYEEEVFSAYSALWWSPNGTFLAYAQFNDTEVPLIEYSFYSDESLQYPKTVRVPYPKAGAVNPTVKFFVVNTDSLSSVTNATSIQITAPASMLIGDHYLCDVTWATQERISLQWLRRIQNYSVMDICDYDESSGRWNCLVARQHIEMSTTGWVGRFRPSEPHFTLDGNSFYKIISNEEGYRHICYFQIDKKDCTFITKGTWEVIGIEALTSDYLYYISNEYKGMPGGRNLYKIQLSDYTKVTCLSCELNPERCQYYSVSFSKEAKYYQLRCSGPGLPLYTLHSSVNDKGLRVLEDNSALDKMLQNVQMPSKKLDFIILNETKFWYQMILPPHFDKSKKYPLLLDVYAGPCSQKADTVFRLNWATYLASTENIIVASFDGRGSGYQGDKIMHAINRRLGTFEVEDQIEAARQFSKMGFVDNKRIAIWGWSYGGYVTSMVLGSGSGVFKCGIAVAPVSRWEYYDSVYTERYMGLPTPEDNLDHYRNSTVMSRAENFKQVEYLLIHGTADDNVHFQQSAQISKALVDVGVDFQAMWYTDEDHGIASSTAHQHIYTHMSHFIKQCFSLP
B2: DP4 variant R125A (Homo sapiens; R125A) (protein)
chain: ADSRKTYTLTDYLKNTYRLKLYSLRWISDHEYLYKQENNILVFNAEYGNSSVFLENSTFDEFGHSINDYSISPDGQFILLEYNYVKQWAHSYTASYDIYDLNKRQLITEERIPNNTQWVTWSPVGHKLAYVWNNDIYVKIEPNLPSYRITWTGKEDIIYNGITDWVYEEEVFSAYSALWWSPNGTFLAYAQFNDTEVPLIEYSFYSDESLQYPKTVRVPYPKAGAVNPTVKFFVVNTDSLSSVTNATSIQITAPASMLIGDHYLCDVTWATQERISLQWLRRIQNYSVMDICDYDESSGRWNCLVARQHIEMSTTGWVGRFRPSEPHFTLDGNSFYKIISNEEGYRHICYFQIDKKDCTFITKGTWEVIGIEALTSDYLYYISNEYKGMPGGRNLYKIQLSDYTKVTCLSCELNPERCQYYSVSFSKEAKYYQLRCSGPGLPLYTLHSSVNDKGLRVLEDNSALDKMLQNVQMPSKKLDFIILNETKFWYQMILPPHFDKSKKYPLLLDVYAGPCSQKADTVFRLNWATYLASTENIIVASFDGRGSGYQGDKIMHAINRRLGTFEVEDQIEAARQFSKMGFVDNKRIAIWGWSYGGYVTSMVLGSGSGVFKCGIAVAPVSRWEYYDSVYTERYMGLPTPEDNLDHYRNSTVMSRAENFKQVEYLLIHGTADDNVHFQQSAQISKALVDVGVDFQAMWYTDEDHGIASSTAHQHIYTHMSHFIKQCFSLP

Substrate: CC(C)C[C@H](NC(=O)[C@@H]1CCCN1C(=O)[C@@H](N)C(C)C)C(=O)O
Test: purified protein, by the assay type
Details: T = 30 °C, 100 mM Tris-HCl, pH 7.6, substrate concentration 25 μM
[1] = other: wild type DP4, cleavage of diprotin B as substrate
[2] = other: R125A, cleavage of diprotin B as substrate

Protein | Km [1] | kcat [1] [s⁻¹] | kcat/Km [1] [M⁻¹ s⁻¹] | Km [2] | kcat [2] [s⁻¹] | kcat/Km [2] [M⁻¹ s⁻¹]
B1 | (7.2 ± 0.58) · 10^−6 M | 7 | 970000 | – | – | –
B2 | – | – | – | (3.7 ± 0.26) · 10^−4 M | 7.7 | 21000
